In the RNAGym collection of RNA variant scans (doi:10.1021/acssynbio.7b00057):

B1: Pistol ribozyme (parent)
chain: GGGUCGUUGUUCCAUAAUCGCGUGGAUAUGGCACGCAAGUUUCUACCGGGCACCGUAAAUGUCCGACUGGAGCCGUUCGGGCGGCUAUAAACAGACCUCAGGCCCGAAGCGUGGCGGCACCUGCCGCCGGUGGUAAAAAAGAUCGGAAGAGCACACGUCU

Variants of: B1
Assay: aptazyme ON/OFF ratio, guanine; higher = stronger switching; co-transcriptional cleavage with and without guanine

Variant	aptazyme ON/OFF ratio
U7C U8C G9U U10A C12U C13A	1.07
U7C U8C G9U U10A C12U C13U	1.19
U7C U8C G9U U10A C12U C13G	1.14
U7C U8C U10A U11C C13A	1.07
U7C U8C U10A U11C C13U	1.03
U7C U8C U10A U11C C13G	1.1
U7C U8C G9U C13A	1.02
U7C U8C G9U C13G	1.03
U7C U8C G9U C13U	1.23
U7C U8C U10A U11A C12A C13A	1.1
U7C U8C U10A U11A C12A C13G	1.11
U7C U8C U10A U11A C12A C13U	1.13
U7C U8C G9U C12G C13G	1.12
U7C U8C G9U C12G C13A	1.21
U7C U8C G9U C12G C13U	1.17
U7C U8C U10A U11A C13G	1.14
U7C U8C U10A U11A C13U	1.29
U7C U8C U10A U11A C13A	1.26
U7C U8C G9U U10C U11A C12U C13U	1.09
U7C U8C G9U U10C U11A C12U C13G	1.14
U7C U8C G9U U10C U11A C12U C13A	1.13
U7C U8C G9U U10A U11G C12U	1.11
U7C U8C G9U U10A U11G C12A	1.2
U7C U8C G9U U10A U11G C12G	1.15

Variant	aptazyme ON/OFF ratio
U7C U8C G9U U10A U11C C12G C13A	1.17
U7C U8C G9U U10A U11C C12G C13G	1.19
U7C U8C G9U U10A U11C C12G C13U	1.15
U7C U8C U10A U11A C12G C13G	1.21
U7C U8C U10A U11A C12G C13A	1.14
U7C U8C U10A U11A C12G C13U	1.11
U7C U8C G9U U10A U11C C12U C13A	1.16
U7C U8C G9U U10A U11C C12U C13U	1.15
U7C U8C G9U U10A U11C C12U C13G	1.14
U7C U8C G9U U10C U11C C12G C13A	1.05
U7C U8C G9U U10C U11C C12G C13G	1.18
U7C U8C G9U U10C U11C C12G C13U	1.05
U7C U8C G9U U10C U11G C12U	1.22
U7C U8C G9U U10C U11G C12G	1.16
U7C U8C G9U U10C U11G C12A	1.16
U7C U8C G9U U10G U11A C12G C13G	1.18
U7C U8C G9U U10G U11A C12G C13A	1.06
U7C U8C G9U U10G U11A C12G C13U	1.08
U7C U8C G9U U10A U11G C12G C13G	1.08
U7C U8C G9U U10A U11G C12G C13A	1.19
U7C U8C G9U U10A U11G C12G C13U	1.07
U7C U8C G9U U10G U11A C12A C13U	1.17
U7C U8C G9U U10G U11A C12A C13G	1.08
U7C U8C G9U U10G U11A C12A C13A	1.2

Variant	aptazyme ON/OFF ratio
U7C U8C G9U U10G U11C C12G C13A	1.08
U7C U8C G9U U10G U11C C12G C13G	1.17
U7C U8C G9U U10G U11C C12G C13U	1.1
U7C U8C G9U U11A C12A C13A	1.17
U7C U8C G9U U11A C12A C13U	1.28
U7C U8C G9U U11A C12A C13G	1.1
U7C U8C G9U U10A C13A	1.14
U7C U8C G9U U10A C13U	1.27
U7C U8C G9U U10A C13G	1.09
U7C U8C G9U U10G U11A C12U C13U	1.21
U7C U8C G9U U10G U11A C12U C13G	1.12
U7C U8C G9U U10G U11A C12U C13A	1.1
U7C U8C G9U U10G U11C C12U C13U	1.18
U7C U8C G9U U10G U11C C12U C13G	1.09
U7C U8C G9U U10G U11C C12U C13A	1.12
U7C U8C U10A U11A C12U C13A	1.13
U7C U8C U10A U11A C12U C13U	1.16
U7C U8C U10A U11A C12U C13G	1.28
U7C U8C U10A U11C C12G	1.26
U7C U8C U10A U11C C12A	1.29
U7C U8C U10A U11C C12U	1.05
U7C U8C G9U U10C U11A C12U	1.26
U7C U8C G9U U10C U11A C12G	1.34
U7C U8C G9U U10C U11A C12A	1.26

Variant	aptazyme ON/OFF ratio
U7C U8C G9U U10G U11G C12U C13U	1.08
U7C U8C G9U U10G U11G C12U C13A	1.08
U7C U8C G9U U10G U11G C12U C13G	1.09
U7C U8C G9U U10C U11C C12A C13G	1.18
U7C U8C G9U U10C U11C C12A C13A	1.12
U7C U8C G9U U10C U11C C12A C13U	1.16
U7C U8C U10A U11C C12A C13G	1.16
U7C U8C U10A U11C C12A C13U	1.15
U7C U8C U10A U11C C12A C13A	1.13
U7C U8C G9U U10A U11G C12U C13U	1.14
U7C U8C G9U U10A U11G C12U C13A	1.06
U7C U8C G9U U10A U11G C12U C13G	1.13
U7C U8C G9U U10C C13G	1.08
U7C U8C G9U U10C C13U	3.5
U7C U8C G9U U10C C13A	1.2
U7C U8C G9U U10G U11G C12A	1.13
U7C U8C G9U U10G U11G C12G	1.1
U7C U8C G9U U10G U11G C12U	1.1
U7C U8C U10A U11A C12A	1.19
U7C U8C U10A U11A C12G	1.24
U7C U8C U10A U11A C12U	1.16
U7C U8C G9C U11C C12G C13A	1.09
U7C U8C G9C U11C C12G C13G	1.2
U7C U8C G9C U11C C12G C13U	1.01

Variant	aptazyme ON/OFF ratio
U7C U8C G9U U10C U11A C13G	1.14
U7C U8C G9U U10C U11A C13A	1.2
U7C U8C G9U U10C U11A C13U	1.23
U7C U8C G9U U10G U11A C12U	1.17
U7C U8C G9U U10G U11A C12A	1.37
U7C U8C G9U U10G U11A C12G	1.25
U7C U8C U10A C12U	1.12
U7C U8C U10A C12A	1.06
U7C U8C U10A C12G	1.08
U7C U8C G9U U11C C12G C13U	1.08
U7C U8C G9U U11C C12G C13A	1.12
U7C U8C G9U U11C C12G C13G	1.12
U7C U8C G9U U10A U11G C12A C13U	1.12
U7C U8C G9U U10A U11G C12A C13A	1.19
U7C U8C G9U U10A U11G C12A C13G	1.05
U7C U8C U10A C12U C13G	1.06
U7C U8C U10A C12U C13A	1.06
U7C U8C U10A C12U C13U	1.03
U7C U8C G9U U11A C12U C13A	1.18
U7C U8C G9U U11A C12U C13G	1.12
U7C U8C G9U U11A C12U C13U	1.2
U7C U8C G9U U10C U11C C12G	1.06
U7C U8C G9U U10C U11C C12A	1.22
U7C U8C G9U U10C U11C C12U	1.23

Variant	aptazyme ON/OFF ratio
U7C U8C G9U U11C C12A C13G	1.04
U7C U8C G9U U11C C12A C13A	1.06
U7C U8C G9U U11C C12A C13U	1.14
U7C U8C G9U U10C U11G C12A C13G	1.11
U7C U8C G9U U10C U11G C12A C13A	1.11
U7C U8C G9U U10C U11G C12A C13U	1.12
U7C U8C G9U U10G C12A C13G	1.1
U7C U8C G9U U10G C12A C13A	1.06
U7C U8C G9U U10G C12A C13U	1.1
U7C U8C G9C U11G C12G C13G	1.11
U7C U8C G9C U11G C12G C13A	1.1
U7C U8C G9C U11G C12G C13U	1.1
U7C U8C G9U U10G U11G	1.21
U7C U8C G9U U10G U11A	1.32
U7C U8C G9U U10G U11C	1.39
U7C U8C G9U U10G C12G C13G	1.07
U7C U8C G9U U10G C12G C13U	1.09
U7C U8C G9U U10G C12G C13A	1.09
U7C U8C G9U U10C C12U C13A	1.12
U7C U8C G9U U10C C12U C13G	1.1
U7C U8C G9U U10C C12U C13U	1.28
U7C U8C U10A C13G	1.05
U7C U8C U10A C13U	1.04
U7C U8C U10A C13A	1.06

Variant	aptazyme ON/OFF ratio
U7C U8C G9U C12A C13U	1.22
U7C U8C G9U C12A C13A	1.05
U7C U8C G9U C12A C13G	1.1
U7C U8C G9U U10A U11A C12U C13U	1.18
U7C U8C G9U U10A U11A C12U C13A	1.09
U7C U8C G9U U10A U11A C12U C13G	1.14
U7C U8C U10A C12G C13G	1.12
U7C U8C U10A C12G C13A	1.12
U7C U8C U10A C12G C13U	1.07
U7C U8C G9U U11G C13G	1.05
U7C U8C G9U U11G C13A	1.21
U7C U8C G9U U11G C13U	1.16
U7C U8C G9U U10G C12A	1.22
U7C U8C G9U U10G C12U	1.33
U7C U8C G9U U10G C12G	1.15
U7C U8C G9U U10C U11C C13U	1.04
U7C U8C G9U U10C U11C C13A	1.02
U7C U8C G9U U10C U11C C13G	1.1
U7C U8C U10A	1.35
U7C U8C G9U U10A U11C C12A C13A	1.17
U7C U8C G9U U10A U11C C12A C13G	1.15
U7C U8C G9U U10A U11C C12A C13U	1.18
U7C U8C G9U U10A U11C	1.16
